This note sets out measurements from patent US20060165683A1, “Methods and compositions for control of bone formation via modulation of sympathetic tone” (priority 2001, published 2006).

Series [1] concerns murine primary osteoblasts. Briefly: cAMP production in murine primary osteoblasts. The series is classed as cell-based, mouse. The settings on record: confluent cultures, 100 μM IBMX, 5 min treatment; PTH as positive control. As to the method:
(§1) Primary osteoblast cultures were established as previously described (see, e.g., Ducy et al., 2000, Cell 100: 197-207) and maintained in αMEM/0.1 mg/ml ascorbic acid supplemented with 10% FBS. SaOS-2 were grown in MEM/10% FBS. For cAMP assay confluent cultures were incubated with serum free medium containing 100 μM IBMX (3-isobutyl-1-methylxanthine, Sigma) for 8 minutes before PBS, PTH(1-34) (Bachem), isoproterenol, norepinephrine, phenylephrine (Sigma) or propranolol were added for 5 min. Intracellular cAMP concentration was measured by immunoassay (R&D Systems). For gene expression analyses, primary osteoblasts were treated for 72 hours with appropriate drugs in 0.1% FBS. Hormone serum levels were quantified using immunoassays kits from Peninsula Laboratories (Insulin) or Alpco Diagnostics (leptin). Deoxypyridinoline cross-links and Creatinine were measured in morning urines using the Quidel kits. a1(I) leptin bioactivity was verified by cotransfection of 293 cells expressing ObRb with a STAT3-responsive-luc reporter construct, pSVβgal plasmid and a1(I) leptin expression vector or mock. Twenty-four hours later luciferase and β-galactosidase activities were measured. Data represents ratios of luciferase/β-galactosidase activities, and values are mean of 6 independent transfection experiments.
For a sympathetic regulation of bone formation to exist several requirements have to be fulfilled. The first one is that functional adrenergic receptors are present on osteoblasts. […] Immunohistochemical analysis of long bones from transgenic mice expressing LacZ under the control of the osteoblast-specific fragment of the a1(I) collagen promoter verified the presence of β2-adrenergic receptors on osteoblasts (FIG. 13B). No other adrenergic receptor subtype could be detected. […] Electron micrographs confirmed the presence of unmyelinated peripheral nerve axons coursing through the marrow adjacent to bone trabeculae and to osteoblasts (FIG. 13E). β-adrenergic receptors are G-coupled receptors that signal through the cAMP pathway (see, e.g., Benovic et al., 1988, Annu Rev Cell Biol 4:405-428). Thus, to assess the biologic relevance of the presence of β2-adrenergic receptors on osteoblasts, these cells were treated with isoproterenol, a β-adrenergic agonist, alone or in the presence of propranolol, a β-adrenergic receptor antagonist; with norepinephrine, the natural ligand of β-adrenergic receptors; with phenylephrine, an α-adrenergic agonist or with vehicle and measured cAMP production. As a positive control, parathyroid hormone (PTH) that binds to another G-coupled receptor present in osteoblasts was used (Gardella & Juppner, 2001, Trends Endocrinol Metab 12:210-217.). […] These effects were abolished by propranolol treatment. […]
For orientation: cAMP levels reflect the balance of adenylyl cyclase and phosphodiesterase activity.

Series [2] concerns primary osteoblasts. As to the kind of experiment: Gene expression and apoptosis in primary osteoblasts. The class given is cell-based, mouse. As to the method:
as §1
To elucidate the bases of the antiosteogenic effect of isoproterenol in vivo, osteoblast proliferation, gene expression and apoptosis were studied.

Series [3] concerns ob/ob mice. As to the kind of experiment: Intracerebroventricular infusion of leptin in ob/ob mice. The class given is in vivo, mouse. As to the method:
Lastly, the issue of whether leptin binding to its hypothalamic receptor could correct the high bone mass phenotype of the ob/ob mice as it can rescue their obesity phenotype was addressed. To that end pumps delivering either PBS or leptin (8 ng/hr) in the third ventricle of ob/ob mice were inserted as follows. Animals were anesthetized with avertin and placed on a stereotaxic instrument (Stoelting). The Calabria was exposed and a 0.7 mm hole was drilled upon bregma. A 28-gauge cannula (Brain infusion kit U, Alza) was implanted into the third ventricle according to the following coordinates: midline, −0.3 AP, 3 mm ventral (0 point bregma). The cannula was secured to the skull with cyanoacrylate, and attached with Tygon tubing to an osmotic pump (Alza) placed in the dorsal subcutaneous space of the animal. The rate of delivery was 0.25 μl/hour (8 ng/hr of leptin (Sigma)) or PBS for 28 days. The dosage has been previously shown to have no effect when administered systemically (Halaas et al., 1997, Proc Nati Acad Sci USA 94:8878-8883). To be as close as possible to the biological situation of the ob/ob mice, the animals in which pumps were inserted were ovariectomized to avoid any artificial increase in bone mass due to the correction of their hypogonadism. The pumps were left in place for 28 days and double-labeling with calcein was performed to measure the bone formation parameters.

Series [4] deals with propranolol-treated wt mice. As to the kind of experiment: Leptin ICV infusion in propranolol-treated mice. The series is classed as in vivo, mouse. The settings on record: centrally delivered leptin. As to the method:
Wildtype (C57BL/6J) and mutant (C57BL/6J A^y/a, C57BL/6J ob/ob) mice were obtained from the Jackson laboratory and adrenal medullectomized mice from Harlan Tecklad laboratory. Dbh−/− mice were rescued as previously described (Thomas et al., 1998, Neurochem 70:2468-2476). Isoproterenol (Sigma) was injected intraperitoneally (ip) once daily for 6 weeks at 30 mg/kg (wt) or 3 mg/kg (ob/ob). Propranolol (Sigma) was added to the drinking water at a concentration of 0.5 g/l. For ICV infusion, a 28-gauge cannula (Brain infusion kit II, Alza) was implanted into the third ventricle as previously described infusing human leptin (Sigma) at 8 ng/hr or MT-II at 125 ng/hr (Phoenix Pharmaceuticals) for 28 days (see, e.g., Ducy et al., 2000, Cell 100: 197-207). The cannula was connected to an osmotic pump (Alza) placed in the dorsal subcutaneous space of the animal. For parabiosis longitudinal incisions were made in the skin and in the peritoneal cavity along one side on each mouse. Edges of the incisions were connected by suture to induce coelioanastomosis. Cross-circulation was quantified by injecting 1 ml/kg 0.25% Evans blue into the tail vein of one mouse of the parabiosed pair. After 30 min. blood was collected from both mice by retroorbital bleeding and the blood exchange rate was calculated according to standard techniques (see, e.g., Harris & Martin, 1984, Am J Physiol 247:R380-386). […]

[5] abbreviates: primary osteoblasts, 72 hours, 0.1% FBS, Northern blot.
[6] abbreviates: ob/ob mice, ICV 8 ng/hr, 28 days.

Consider `CC(C)NCC(O)c1ccc(O)c(O)c1` (centres unmarked) [isoproterenol], for which the cAMP production entry in series [1] is on record as “increased”. Besides, the “apoptosis: Caspase 3 expression and Annexin-V staining levels” value in series [2] (isoproterenol-treated versus control osteoblasts) is “did not observe any change”. Also, in series [2] (setting [5]), the “expression of Cbfa1” value is recorded as “decreased” and the “expression of a1(I) collagen” value is on record as “decreased”.

B1: leptin: polypeptide hormone, product of the ob gene; human leptin (Sigma) infused ICV (protein)
chain: VPIQKVQDDTKTLIKTIVTRINDISHTQSVSAKQRVTGLDFIPGLHPILSLSKMDQTLAVYQQVLTSLPSQNVLQIANDLENLRDLLHLLAFSKSCSLPQTSGLQKPESLDGVLEASLYSTEVVALSRLQGSLQDILQQLDVSPEC
Regarding B1, in series [3] (ob/ob mice after ICV infusion), the “leptin in the serum (radioimmunoassay)” value was “No leptin in the serum of these animals was detected”. In series [3] (setting [6]), the Bone Volume entry is listed as “significantly decreased”, the bone formation rates result is listed as “significantly decreased” and the trabeculae thickness result was “significantly decreased”. Also, the “bone appearance (classical histology)” value in series [3] (ovariectomized ob/ob mice, third ventricle, 8 ng/hr, 28 days, vs PBS) is “regained a normal appearance”. Also, in series [4], the bone mass result is “did not affect” and the fat pads entry is “disappearance”.
